Changes are numbered by the printed parent chain.
Tests used:
Assay in all cases: ELISA, coated protein
HSA(ヒト血清アルブミン) = target: T1, HSA(ヒト血清アルブミン) (ヒト, UniProt P02768 25-609)
T1 construct: also called HSA

BSA(ウシ血清アルブミン) = target: T2, BSA(ウシ血清アルブミン) (ウシ, UniProt P02769 25-607)
T2 construct: also called BSA

Human-hemoglobin = Human-hemoglobin (human, UniProt P69905 2-142; P68871 2-147)

Measured: binding result

T2 sequence (P02769 25-607 limits assumed): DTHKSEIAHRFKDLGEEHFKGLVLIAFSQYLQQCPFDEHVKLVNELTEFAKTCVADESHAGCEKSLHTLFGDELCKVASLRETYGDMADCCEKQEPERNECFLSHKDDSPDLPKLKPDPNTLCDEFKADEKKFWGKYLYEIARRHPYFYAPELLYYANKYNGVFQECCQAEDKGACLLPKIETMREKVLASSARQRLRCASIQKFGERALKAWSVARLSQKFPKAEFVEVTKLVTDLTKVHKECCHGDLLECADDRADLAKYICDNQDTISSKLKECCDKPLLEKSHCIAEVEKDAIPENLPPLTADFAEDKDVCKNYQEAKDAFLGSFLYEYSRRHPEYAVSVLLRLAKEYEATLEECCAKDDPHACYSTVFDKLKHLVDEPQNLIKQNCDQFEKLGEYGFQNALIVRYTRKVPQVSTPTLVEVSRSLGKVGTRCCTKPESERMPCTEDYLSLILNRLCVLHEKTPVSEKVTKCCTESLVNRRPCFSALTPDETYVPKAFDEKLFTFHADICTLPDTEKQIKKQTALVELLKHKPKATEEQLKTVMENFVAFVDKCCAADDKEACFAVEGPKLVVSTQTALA
Human-hemoglobin, sequence (P69905 2-142 limits assumed, chain 1 of 2): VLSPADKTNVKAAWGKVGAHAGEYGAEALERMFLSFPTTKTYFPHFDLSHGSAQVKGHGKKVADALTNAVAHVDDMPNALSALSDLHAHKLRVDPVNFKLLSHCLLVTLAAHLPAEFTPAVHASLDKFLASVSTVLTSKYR
Human-hemoglobin, sequence (P68871 2-147 limits assumed, chain 2 of 2): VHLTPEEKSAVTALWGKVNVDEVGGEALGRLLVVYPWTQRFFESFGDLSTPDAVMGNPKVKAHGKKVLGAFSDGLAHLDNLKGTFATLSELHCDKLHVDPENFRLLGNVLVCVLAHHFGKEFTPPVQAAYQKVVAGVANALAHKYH
T1 sequence (P02768 25-609): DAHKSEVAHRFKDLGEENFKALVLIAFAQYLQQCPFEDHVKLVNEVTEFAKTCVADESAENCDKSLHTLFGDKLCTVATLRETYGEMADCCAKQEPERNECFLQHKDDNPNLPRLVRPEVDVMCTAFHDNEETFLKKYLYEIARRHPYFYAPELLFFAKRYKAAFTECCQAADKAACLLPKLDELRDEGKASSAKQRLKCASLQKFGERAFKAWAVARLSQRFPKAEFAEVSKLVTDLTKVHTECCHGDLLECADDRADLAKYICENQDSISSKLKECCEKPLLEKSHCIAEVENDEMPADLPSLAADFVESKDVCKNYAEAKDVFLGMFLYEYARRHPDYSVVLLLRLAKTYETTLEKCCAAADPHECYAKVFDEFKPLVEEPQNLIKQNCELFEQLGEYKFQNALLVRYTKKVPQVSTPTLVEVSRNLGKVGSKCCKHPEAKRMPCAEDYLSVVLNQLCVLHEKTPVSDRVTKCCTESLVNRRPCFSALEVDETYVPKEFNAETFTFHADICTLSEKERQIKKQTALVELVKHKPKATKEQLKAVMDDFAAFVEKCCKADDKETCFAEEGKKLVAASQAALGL

B1: モノクロナール抗体(抗体酵素)HA1−1 (antibody, V domains shown)
VH: QVQLQQSGPQLVRPGASVKISCKTSGYSFTTYWMHWVKQRPGQGLDWIGMIDPSESETRLNQKFKDKATLTVDKSSSTADMQLSSPTSEDSAVYYCASYEGYWGQGTLVTVS
VL: DIVMSQSPSSLAVSAGEKVTMSCKSSQSLLNSRTRKNYLAWYQQKPGQSPKLLIYWASARESGVPDRFTGSGSGTDFTLTISSVQAEDLAVYYCKQSYTLTWTFGGGTKVEIKR
notes: also called HA1-1; HA1−1抗体
no binding: all assays above

B2: モノクロナール抗体(抗体酵素)HA1−2 (antibody, V domains shown)
VH: QVQLQQSGPHLVRPGTSVRISCKASGYSFTSYWMHWVKQRPGQGLEWIGMIAPSDSETGLNQKFKDKATLTVDKSSSTAYIQLSSPTSEDSAVYYCASYEAYWGQGTLVTVS
VL: B1 VL with A15V, T34A, A59T, T99N, L100V, V110L
notes: also called HA1-2; HA1−2抗体
no binding: all assays above
